Test results from US20140322196A1.

B1: bLf C-lobe (aa 285-689) (protein)
chain: SFQLFGSPPGQRDLLFKDSALGFLRIPSKVDSALYLGSRYLTTLKNLRETAEEVKARYTRVVWCAVGPEEQKKCQQWSQQSGQNVTCATASTTDDCIVLVLKGEADALNLDGGYIYTAGKCGLVPVLAENRKSSKHSSLDCVLRPTEGYLAVAVVKKANEGLTWNSLKDKKSCHTAVDRTAGWNIPMGLIVNQTGSCAFDEFFSQSCAPGADPKSRLCALCAGDDQGLDKCVPNSKEKYYGYTGAFRCLAEDVGDVAFVKNDTVWENTNGESTADWAKNLNREDFRLLCLDGTRKPVTEAQSCHLAVAPNHAVVSRSDRAAHVKQVLLHQQALFGKNGKNCPDKFCLFKSETKNLLFNDNTECLAKLGGRPTYEEYLGTEYVTAIANLKKCSTSPLLEACAFLTR
B2: bLf C-lobe (aa 345-689) (protein)
chain: VVWCAVGPEEQKKCQQWSQQSGQNVTCATASTTDDCIVLVLKGEADALNLDGGYIYTAGKCGLVPVLAENRKSSKHSSLDCVLRPTEGYLAVAVVKKANEGLTWNSLKDKKSCHTAVDRTAGWNIPMGLIVNQTGSCAFDEFFSQSCAPGADPKSRLCALCAGDDQGLDKCVPNSKEKYYGYTGAFRCLAEDVGDVAFVKNDTVWENTNGESTADWAKNLNREDFRLLCLDGTRKPVTEAQSCHLAVAPNHAVVSRSDRAAHVKQVLLHQQALFGKNGKNCPDKFCLFKSETKNLLFNDNTECLAKLGGRPTYEEYLGTEYVTAIANLKKCSTSPLLEACAFLTR

Legend:
Assay in all cases: cell-based or functional assay
[1] = molecular target: Hemagglutinin (HA) of Influenza A virus A/Parma/24/09 (Brisbane-like) (oseltamivir-resistant) H1N1 (Influenza A virus A/Parma/24/09 H1N1)
[2] = molecular target: Hemagglutinin (HA) of Influenza A virus A/Solomon 3/2006 H1N1 (inactivated subunits, vaccine) (Influenza A virus A/Solomon 3/2006 H1N1)
[3] = molecular target: Hemagglutinin (HA) of Influenza A virus A/Wisconsin/67/2005 H3N2 (inactivated subunits, vaccine) (Influenza A virus A/Wisconsin/67/2005 H3N2)

| Binder | activity on viral hemagglutination (HI) [1] [nM] | activity on viral hemagglutination (HI) [2] [pM] | activity on viral hemagglutination (HI) [3] [pM] |
| --- | --- | --- | --- |
| B1 | 24 | 5 | 1.6 |
| B2 | 10 | 5 | 1.2 |
